“And” between values parts separate entries of the source, which are not always exact repeats. Identical values can stand only once. Values belong to the molecule of their own block, whether it stands above or below them.
Legend:
Cep152 M4e(1205–1272) = assay: co-immunoprecipitation (IP: FLAG) and immunoblotting; conditions: transfected HEK293 cells; FLAG-Cep152 M4e co-expressed with GFP-Cep63 P1 and GFP-Cep152 M4e; blot α-GFP, M4e band; parent: 1.0
[1] = molecular target: Cep63 P1(424–541), expressed in HEK293 cells; assay: as above; conditions: transfected HEK293 cells; FLAG-Cep152 M4e co-expressed with GFP-Cep63 P1 and GFP-Cep152 M4e; blot α-GFP, P1 band; parent: 1.0
Cep63 full-length (FL) = assay: as above; conditions: transfected HEK293 cells; FLAG-Cep152 WT or 6A co-expressed with HA-Cep63; blot α-HA, long exposure; parent: 1.0
[2] = molecular target: Cep63 P1b(490–541) (human); assay: co-IP; transfected HEK293 cells lysed in TBSN buffer [20 mM Tris-HCl (pH 8.0), 150 mM NaCl, 0.5% Nonidet P-40, 5 mM EGTA, 1.5 mM EDTA]; IP with anti-FLAG or anti-GFP antibody and protein A/G-agarose; immunoblotting
[3] = molecular target: Cep152(1140–1295), from E. coli (human); assay: SEC-MALS; Cep63(220–541)•Cep152(1140–1295) complex; Superdex 200 Increase 10/300 GL, 4 °C, 20 mM Tris-HCl (pH 8.0), 150 mM NaCl, 0.5 mM TCEP (the methods name the P1•M4d complex)
[4] = molecular target: Cep152 M4e15(1205–1257), from E. coli (human); assay: AUC; sedimentation velocity of the P1b5•M4e15 complex, 95 to 530 μM; 20 °C; 20 mM Tris (pH 7.5), 100 mM NaCl, 0.5 mM TCEP
[5] = molecular target: Cep152 M4e15(1205–1257), from E. coli (human); assay: SEC-MALS; decreasing concentrations of the P1b5•M4e15 complex; biphasic change of MW, estimated Kd values of two steps of dissociation of the heterotetramer
[6] = molecular target: Cep63 full-length (FL) (human); assay: co-IP; transfected HEK293 cells lysed in TBSN buffer [20 mM Tris-HCl (pH 8.0), 150 mM NaCl, 0.5% Nonidet P-40, 5 mM EGTA, 1.5 mM EDTA]; IP with anti-FLAG or anti-GFP antibody and protein A/G-agarose; immunoblotting
[7] = molecular target: Cep152 full-length FL(1–1654) (human); assay: co-IP; IP from a mixture of lysates from HEK293 cells transfected separately with each construct; with or without provision of HA-Cep63
[8] = molecular target: Cep152 M4e(1205–1272) (human); assay: co-IP; transfected HEK293 cells lysed in TBSN buffer [20 mM Tris-HCl (pH 8.0), 150 mM NaCl, 0.5% Nonidet P-40, 5 mM EGTA, 1.5 mM EDTA]; IP with anti-FLAG or anti-GFP antibody and protein A/G-agarose; immunoblotting
[9] = molecular target: Cep152 M4d(1205–1295), from E. coli (human); assay: AUC; sedimentation velocity, complex at 10 μM; 4 °C; 20 mM Tris (pH 7.5), 500 mM NaCl, 10 mM 2-mercaptoethanol, 0.5 mM TCEP, 5% glycerol
Cep152 = molecular target: T1, Cep152 (Homo sapiens, UniProt O94986); assay: SEC-MALS
T1 chain: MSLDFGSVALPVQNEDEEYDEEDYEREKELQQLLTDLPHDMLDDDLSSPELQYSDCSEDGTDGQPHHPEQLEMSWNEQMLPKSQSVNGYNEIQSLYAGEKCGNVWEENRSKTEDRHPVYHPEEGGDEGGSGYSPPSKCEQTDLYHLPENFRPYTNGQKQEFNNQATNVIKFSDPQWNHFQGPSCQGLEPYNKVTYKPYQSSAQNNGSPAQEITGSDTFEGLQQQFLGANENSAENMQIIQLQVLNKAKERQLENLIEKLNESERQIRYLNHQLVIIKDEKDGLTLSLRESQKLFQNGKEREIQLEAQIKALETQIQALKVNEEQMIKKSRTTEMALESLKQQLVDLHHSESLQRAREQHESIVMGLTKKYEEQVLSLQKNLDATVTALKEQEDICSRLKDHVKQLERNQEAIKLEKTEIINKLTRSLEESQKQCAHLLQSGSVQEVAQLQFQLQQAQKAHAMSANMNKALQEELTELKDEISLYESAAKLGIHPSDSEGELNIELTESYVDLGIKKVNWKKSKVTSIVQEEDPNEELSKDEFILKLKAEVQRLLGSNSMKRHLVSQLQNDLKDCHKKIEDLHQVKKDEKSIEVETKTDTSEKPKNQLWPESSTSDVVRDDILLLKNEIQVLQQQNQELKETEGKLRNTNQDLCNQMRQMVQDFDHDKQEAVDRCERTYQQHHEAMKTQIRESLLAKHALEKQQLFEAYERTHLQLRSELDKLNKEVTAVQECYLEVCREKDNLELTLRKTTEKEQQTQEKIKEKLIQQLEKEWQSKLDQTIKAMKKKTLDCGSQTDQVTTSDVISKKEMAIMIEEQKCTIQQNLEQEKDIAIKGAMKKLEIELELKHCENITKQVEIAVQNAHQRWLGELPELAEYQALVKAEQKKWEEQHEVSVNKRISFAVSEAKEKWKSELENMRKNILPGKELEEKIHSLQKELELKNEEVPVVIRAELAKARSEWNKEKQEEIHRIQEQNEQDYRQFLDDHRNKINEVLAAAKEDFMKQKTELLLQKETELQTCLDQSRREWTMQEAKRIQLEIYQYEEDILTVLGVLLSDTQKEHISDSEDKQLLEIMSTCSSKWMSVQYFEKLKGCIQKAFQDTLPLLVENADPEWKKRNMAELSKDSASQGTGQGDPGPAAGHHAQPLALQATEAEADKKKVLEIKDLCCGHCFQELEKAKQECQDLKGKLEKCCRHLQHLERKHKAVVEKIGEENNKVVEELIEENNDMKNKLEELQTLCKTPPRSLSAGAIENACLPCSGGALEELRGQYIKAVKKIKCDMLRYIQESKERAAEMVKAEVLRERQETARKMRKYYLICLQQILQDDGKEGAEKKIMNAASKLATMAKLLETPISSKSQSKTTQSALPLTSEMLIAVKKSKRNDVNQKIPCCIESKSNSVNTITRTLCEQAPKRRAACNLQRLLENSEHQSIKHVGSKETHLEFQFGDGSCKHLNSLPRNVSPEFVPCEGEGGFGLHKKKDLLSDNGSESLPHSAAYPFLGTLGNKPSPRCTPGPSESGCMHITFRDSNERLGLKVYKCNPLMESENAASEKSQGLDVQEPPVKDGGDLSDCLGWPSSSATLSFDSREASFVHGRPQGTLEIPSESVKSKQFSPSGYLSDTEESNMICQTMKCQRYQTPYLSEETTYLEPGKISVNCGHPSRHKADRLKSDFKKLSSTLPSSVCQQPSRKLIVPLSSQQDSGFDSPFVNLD

Molecule: Cep152 full-length FL(1–1654) L1207A; L1210A; Y1214A; I1221A; M1225A; Y1228A
- ratio to parent (Cep63 full-length (FL)): 0.1

Molecule: His-Cep63 P1b5(502–541), from E. coli (pKM5500) (domain or fragment)
- stoichiometry N (Cep63:Cep152 (printed as 2:2)) [4]: 1
- Kd of one of two steps of dissociation of the 2:2 heterotetramer (step not assigned) [5]: 60 µM

Molecule: Cep63 full-length (FL) (natural protein)
- fold increase of the co-precipitate on provision of Cep152 [6]: 8 fold

Molecule: GFP-Cep63 P1b5(502–541) (domain or fragment)
- loss of co-precipitation against the P1b–M4e pair [8]: 40%

Molecule: Cep152 M4e(1205–1272) L1207A; L1210A; Y1214A; I1221A; M1225A; Y1228A
- ratio to parent (Cep152 M4e(1205–1272)): 0.1
- ratio to parent [1]: 0

Molecule: Cep152 M4e(1205–1272) 5A
- ratio to parent (Cep152 M4e(1205–1272)): 0.7
- ratio to parent [1]: 0.9

B1: Cep63 (protein)
chain: MEALLEGIQNRGHGGGFLTSCEAELQELMKQIDIMVAHKKSEWEGRTHALETCLKIREQELKSLRSQLDVTHKEVGMLHQQVEEHEKIKQEMTMEYKQELKKLHEELCILKRSYEKLQKKQMREFRGNTKNHREDRSEIERLTAKIEEFRQKSLDWEKQRLIYQQQVSSLEAQRKALAEQSEIIQAQLVNRKQKLESVELSSQSEIQHLSSKLERANDTICANELEIERLTMRVNDLVGTSMTVLQEQQQKEEKLRESEKLLEALQEEKRELKAALQSQENLIHEARIQKEKLQEKVKATNTQHAVEAIRPREESLAEKKYTSQGQGDLDSVLSQLNFTHTSEDLLQAEVTCLEGSLESVSATCKQLSQELMEKYEELKRMEAHNNEYKAEIKKLKEQILQGEQSYSSALEGMKMEISHLTQELHQRDITIASTKGSSSDMEKRLRAEMQKAEDKAVEHKEILDQLESLKLENRHLSEMVMKLELGLHEAKEISLADLQENYIEALNKLVSENQQLQKDLMNTKSQLEISTQMCKKQNDRIFKPTHSRTTEFKNTEFKPTHGQHRHDGIKTEHYKTDLHSPRGQASDSINPMSRVLSPLSPQISPCSSTRSLTSYSLCKTHSLPSALDTNEANFSDTMSESMNDQEEFISSCSLPVSPLGSIATRFLEEEELRSHHILERLDAHIEELKRESEKTVRQFTALK
- Kd (Cep152): ~60 µM and ~117 µM

The next lines start with the values.

- ratio to parent (Cep152 M4e(1205–1272)): 0
- ratio to parent [1]: 0
Molecule: Cep152 M4e(1205–1272) 11A

- loss of co-precipitation against the P1b–M4e pair [2]: 40%
Molecule: GFP-Cep152 M4e13(1205–1260) (domain or fragment)

- stoichiometry N (Cep63:Cep152 (printed as 2:2)) [3]: 1
Molecule: His-Cep63(220–541), from E. coli (domain or fragment)

- fold increase of the co-precipitate on provision of Cep63 [7]: 8 fold
Molecule: Cep152 full-length FL(1–1654) (natural protein)

- stoichiometry N (Cep63:Cep152 (printed as 2:2)) [9]: 1
Molecule: His-Cep63 P1(424–541), from E. coli (domain or fragment)

From article PMC6411776 (2019)
